Data from PMC11211662, “A novel alcohol dehydrogenase in the hyperthermophilic crenarchaeon Hyperthermus butylicus” (mLife, 2024).

Assays:
Assay in all cases: purified protein
purified protein [1] = substrate: CCCC=O; assay type: biochemical, Hyperthermus butylicus; conditions: reduction, 0.2 mM NADPH, 100 mM PIPES pH 6.0, 80 °C, anaerobic, pH 6.0
purified protein [2] = substrate: CCCCO; assay type: biochemical, Hyperthermus butylicus; conditions: oxidation, 0.4 mM NADP+, 100 mM EPPS pH 9.0, 80 °C, anaerobic, pH 9.0
purified protein [3] = substrate: CCC=O; assay type: biochemical, Hyperthermus butylicus; conditions: reduction, 0.2 mM NADPH, 100 mM PIPES pH 6.0, 80 °C, anaerobic, pH 6.0
purified protein [4] = substrate: CC(C)=O; assay type: biochemical, Hyperthermus butylicus; conditions: reduction, 0.2 mM NADPH, 100 mM PIPES pH 6.0, 80 °C, anaerobic, pH 6.0
purified protein [5] = substrate: CCCO; assay type: biochemical, Hyperthermus butylicus; conditions: oxidation, 0.4 mM NADP+, 100 mM EPPS pH 9.0, 80 °C, anaerobic, pH 9.0
purified protein [6] = substrate: CC=O; assay type: biochemical, Hyperthermus butylicus; conditions: reduction, 0.2 mM NADPH, 100 mM PIPES pH 6.0, 80 °C, anaerobic, pH 6.0
purified protein [7] = substrate: CC(C)O; conditions: oxidation, 0.4 mM NADP+, 100 mM EPPS pH 9.0, 80 °C, anaerobic
purified protein [8] = substrate: CCO; conditions: oxidation, 0.4 mM NADP+, 100 mM EPPS pH 9.0, 80 °C, anaerobic

B1: HbADH2 (Hyperthermus butylicus DSM 5456) (protein)
chain: MLRRLQSSLRDYVRKYIVRLNCNAGGTTCKPSSTECQRFLAEPNLPQALLLAGYRLLDCTCSSGGGVSIELVGTSGDTIPARLCLDCGSIFPALTLKAQLPLSTSIPPYRGPIQEAMLKTVETIAQFCAHRKGLPLLLDTVLAEPARMCKVKLGCRPIHISSFEKADLGTVSPRIKLPTILSWITLRLRKSIEIEAPWLCVESNNGALQLVCLSETCRFEVTHCGSVRLIHGKAIALPSSTRCSPALLHLVYLYGTLYKSIDDVNVKPCIWSMTGLAILGAWYSTGENGESMMLLVWNPLKKSKLHEIVFERHRIVEAKLTSPATWLEEQLIPQYNRLRIPLPPHGARLVYVRLRKLPRLLSKNANG
notes: native protein purified anaerobically from H. butylicus cell-free extract (DEAE-Sepharose, hydroxyapatite, phenyl-Sepharose); untagged; 367 residues deduced, 40,694 Da calculated; gene assigned by mass spectrometry of the gel band, not by recombinant expression
For B1, the Km (purified protein [1]) was 0.59 ± 0.07 mM, the kcat (purified protein [1]) was 8 ± 0.22 s⁻¹ and the kcat/Km (purified protein [1]) was 13600 ± 3140 M⁻¹ s⁻¹. The Km (purified protein [2]) was 2.44 ± 0.30 mM, the kcat (purified protein [2]) was 6.84 ± 0.24 s⁻¹ and the kcat/Km (purified protein [2]) was 2800 ± 814 M⁻¹ s⁻¹. The Km (purified protein [3]) was 1.55 ± 0.20 mM, the kcat (purified protein [3]) was 1.79 ± 0.07 s⁻¹ and the kcat/Km (purified protein [3]) was 1160 ± 338 M⁻¹ s⁻¹. It also gave a Km (purified protein [4]) of 0.68 ± 0.04 mM, a kcat (purified protein [4]) of 3.84 ± 0.06 s⁻¹ and a kcat/Km (purified protein [4]) of 8070 ± 1520 M⁻¹ s⁻¹. It also gave a Km (purified protein [5]) of 4.69 ± 0.41 mM, a kcat (purified protein [5]) of 4.4 ± 0.12 s⁻¹ and a kcat/Km (purified protein [5]) of 938 ± 293 M⁻¹ s⁻¹. For the same protein, the Km (purified protein [6]) was 1.27 ± 0.18 mM, the kcat (purified protein [6]) was 7 ± 0.31 s⁻¹ and the kcat/Km (purified protein [6]) was 5510 ± 1720 M⁻¹ s⁻¹. The Km (purified protein [7]) was 3.74 ± 0.46 mM, the kcat (purified protein [7]) was 3.47 s⁻¹ and the kcat/Km (purified protein [7]) was 928 M⁻¹ s⁻¹. For the same protein, the Km (purified protein [8]) was 4.36 ± 0.42 mM, the kcat (purified protein [8]) was 4 s⁻¹ and the kcat/Km (purified protein [8]) was 915 M⁻¹ s⁻¹.
